T1: biotinylated mouse Robo3 FN1–3 (Avi-tagged) (mouse, UniProt Q9Z2I4 558-869, biotin on the Avi-tag (BirA))
T1 chain: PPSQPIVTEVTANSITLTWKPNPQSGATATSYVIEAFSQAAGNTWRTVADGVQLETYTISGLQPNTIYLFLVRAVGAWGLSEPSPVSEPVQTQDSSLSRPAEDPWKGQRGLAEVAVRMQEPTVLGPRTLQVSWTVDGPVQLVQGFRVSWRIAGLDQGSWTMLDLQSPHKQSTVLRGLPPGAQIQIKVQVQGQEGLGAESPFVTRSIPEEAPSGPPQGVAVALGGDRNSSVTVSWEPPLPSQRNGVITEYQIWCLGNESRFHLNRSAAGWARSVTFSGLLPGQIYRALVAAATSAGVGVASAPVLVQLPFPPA

B1: mouse NELL2 EGF1–6 R448A/Y450A (domain or fragment)
chain: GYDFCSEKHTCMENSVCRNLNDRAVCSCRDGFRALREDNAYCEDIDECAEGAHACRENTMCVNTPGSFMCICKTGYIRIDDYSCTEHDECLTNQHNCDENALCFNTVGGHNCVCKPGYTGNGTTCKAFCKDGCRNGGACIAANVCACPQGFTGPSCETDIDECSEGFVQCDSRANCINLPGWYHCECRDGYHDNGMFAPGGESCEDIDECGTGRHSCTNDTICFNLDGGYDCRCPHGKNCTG
B2: mouse NELL2 EGF1–6, wild type (domain or fragment)
chain: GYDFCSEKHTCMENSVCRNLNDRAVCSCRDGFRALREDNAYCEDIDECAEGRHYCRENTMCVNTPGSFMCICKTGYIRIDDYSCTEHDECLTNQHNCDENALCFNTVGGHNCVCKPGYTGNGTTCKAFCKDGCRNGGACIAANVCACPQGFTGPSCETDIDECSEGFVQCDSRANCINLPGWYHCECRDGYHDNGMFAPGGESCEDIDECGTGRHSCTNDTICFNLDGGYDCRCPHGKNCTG
B3: mouse NELL2 EGF1–6 L498A/F500A (domain or fragment)
chain: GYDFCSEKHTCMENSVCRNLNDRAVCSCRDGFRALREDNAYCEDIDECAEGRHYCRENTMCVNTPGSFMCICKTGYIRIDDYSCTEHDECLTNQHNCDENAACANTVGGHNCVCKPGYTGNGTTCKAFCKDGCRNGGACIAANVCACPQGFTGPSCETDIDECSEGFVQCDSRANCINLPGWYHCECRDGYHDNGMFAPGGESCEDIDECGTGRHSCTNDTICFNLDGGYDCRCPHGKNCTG

In the assay the target is T1, biotinylated mouse Robo3 FN1–3 …. Briefly: SPR.
B1 registered a Kd of 87 µM.
The molecule B2 displayed a Kd of 0.71 µM.
The molecule B3 registered a Kd of approximately 400 µM.

What is called Kd is the concentration at which binding is half-saturated. A lower Kd goes with tighter binding.

Values taken from PMC7083938 (2020).
